Data on one molecule can be found in patent US20250145697A1 (WASHINGTON UNIVERSITY, published 2025).

In experiment [1] the target is T1, recombinant alipidated human ApoE4 (human, UniProt P02649 19-317).
T1 construct: mature; full length recombinant protein made in E. coli or bought; biotinylated for SPR; position 112 is counted on the mature protein, not on the precursor entry; also called recApoE; non-lipidated ApoE4
Nature of the experiment: SPR, biotinylated recombinant apoE4 captured on a streptavidin chip; column Ka (1/Ms). The method, then:
(§1) ELISA plates were coated with 0.5 μg/ml of recombinant apoE2 (square), apoE3 (open circle), or apoE4 (closed circle). Then different concentrations of (A) HJ151, (B) HJ153, (C) HJ154, or (D) HJ156 were loaded on the plates. Horse-radish peroxidase labeled goat anti-mouse secondary antibodies were used to detect binding. […] HJ151 is specific for ApoE4 and HJ156 binds only ApoE3 and ApoE4. FIG. 5E-H are graphs depicting surface plasmon resonance profiles for various antibodies. Anti-ApoE antibodies were serially diluted 3-fold (starting at 100 nM for HJ153 (E), and 1000 nM for HJ151 (F), and […] (G)) for detection of binding to biotinylated-recombinant apoE4 captured on a streptavidin chip. Samples were injected at a flow rate of 30 μl/minute. (H) Apparent KD values of HJ151, HJ153 and HJ156 were calculated based on the SPR experiment.
(§2) ELISA plates were coated with 0.5 μg/ml of recombinant apoE2, apoE3, or apoE4. Then different concentrations of HJ151 (FIG. 5A), HJ153 (FIG. 5B), HJ154 (FIG. 5C), or HJ156 (FIG. 5D) were loaded on the plates. Horse-radish peroxidase labeled goat anti-mouse secondary antibodies were used to detect binding. […] HJ151 is specific for ApoE4 and HJ156 binds only ApoE3 and ApoE4. Surface plasmon resonance profiles for various antibodies was also performed.

The target of experiment [2] is T1, recombinant alipidated human ApoE4. Briefly: SPR, biotinylated recombinant apoE4 captured on a streptavidin chip; column Apparent KD (M). The method, then: as §1, §2
A general note: SPR reads the build-up and loss of mass on a sensor chip optically.

Experiment [3] concerns the target T2, heat-induced aggregates of ApoE4 (human, UniProt P02649 19-317).
T2 construct: mature; aggregated state of the recombinant protein; also called ApoE4 incubated at 40 C for 24 hr; heat-treated ApoE4
Nature of the experiment: ELISA: ApoE4 incubated at 40 C for 24 hr on the plate, antibody titrated, OD650. The protocol: (§3) 1: untreated ApoE4. 2: ApoE4 that has been incubated at 40° C. for 24 hr. Supernatant(S) and pellet (P) from ultracentrifugation were resolved on SDS-PAGE and stained by Coomassie blue. (D) Binding of HJ156 to different preparations of ApoE4 loaded at the same concentration on the ELISA plate. Sup of untreated: Supernatant fraction of untreated ApoE4 from ultracentrifugation. Sup/Pel of 24h 40C: Supernatant/pellet fraction of ApoE4 incubated at 40° C. for 24 hour. (E) Binding of HJ156 to untreated and 40° C. incubated ApoE4 with and without denaturation by 1% SDS or 4M guanidine HCl.
(§4) In order to test whether HJ151 and HJ156 bind to some form of ApoE in the brain, unfixed frozen brain sections from APPPS1/APOE4 or APPPS1/EKO mice using HJ151 and HJ156 (FIG. 38A). The presence of Aβ plaques was confirmed with Aβ immunostaining using anti-Aβ antibody HJ3.4 on the sections from the same brain. […] Next, the ability of HJ156 to bind to an aggregated form of ApoE induced by incubation at 40° C. was queried. The binding of untreated ApoE to HJ151, HJ153 or HJ156 was compared to the binding of ApoE incubated at 40° C. to HJ151, HJ153 or HJ156. HJ153 bound to untreated ApoE or ApoE incubated at 40° C. similarly while HJ151 and HJ156 preferentially bound to ApoE incubated at 40° C. (FIG. 38B). […] Solubilization of the ApoE aggregates reduced their binding to HJ156. […]

The target of experiment [4] is T1, recombinant alipidated human ApoE4. Briefly: SPR, biotinylated recombinant apoE4 captured on a streptavidin chip; column Kd (1/s). The protocol:
as §1, §2

For experiment [5], the target named is T3, murine ApoE (mouse, UniProt P08226 19-311).
T3 sequence (looked up): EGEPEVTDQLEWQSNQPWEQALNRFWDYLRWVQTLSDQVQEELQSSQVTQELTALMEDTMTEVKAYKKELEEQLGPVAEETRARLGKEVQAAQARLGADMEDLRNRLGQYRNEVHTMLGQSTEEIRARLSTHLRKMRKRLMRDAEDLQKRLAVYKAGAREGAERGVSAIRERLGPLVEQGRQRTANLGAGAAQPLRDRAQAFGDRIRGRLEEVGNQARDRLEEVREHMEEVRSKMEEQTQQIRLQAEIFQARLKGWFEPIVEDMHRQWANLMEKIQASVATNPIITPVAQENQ
Nature of the experiment: Western blot of mouse brain lysates. From the text: Brain lysates from apoE KO mice or mice expressing human apoE3, human apoE4 or murine apoE were immunoblotted with HJ151, HJ152, HJ153, and HJ154. A commercial apoE antibody GA-50 was used as a positive control.
Background: In western blotting, separated proteins are transferred to a membrane and probed.

The target in experiment [6] is T4, recombinant alipidated human ApoE3 (human, UniProt P02649 19-317).
T4 construct: mature; full length recombinant protein made in E. coli or bought
T4 sequence (P02649 19-317): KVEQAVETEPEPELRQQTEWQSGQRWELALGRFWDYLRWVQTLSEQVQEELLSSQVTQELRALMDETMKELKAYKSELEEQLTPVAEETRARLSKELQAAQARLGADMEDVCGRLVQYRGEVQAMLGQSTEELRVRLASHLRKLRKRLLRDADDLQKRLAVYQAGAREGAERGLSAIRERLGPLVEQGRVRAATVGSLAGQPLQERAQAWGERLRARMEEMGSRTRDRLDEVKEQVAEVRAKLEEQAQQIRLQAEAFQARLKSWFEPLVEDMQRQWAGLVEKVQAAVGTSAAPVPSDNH
Nature of the experiment: direct ELISA on coated recombinant alipidated ApoE (0.5 ug/ml). The method, then:
(§5) ELISA dose response curves were generated for several anti-ApoE antibodies. Briefly, plates were coated overnight with full length recombinant alipidated ApoE2, ApoE3, or ApoE4 (0.5 μg/ml). The following days, plates were washed, blocked and then incubated with an anti-ApoE antibody. A goat, anti-mouse IgG-HRP antibody was used for secondary detection. Recombinant alipidated ApoE was either expressed solubly in E. coli and then purified, or purchased from a commercial supplier.
A general note: In an ELISA, binding on a coated surface is turned into a signal by an enzyme label.

Experiment [7] deals with T5, recombinant alipidated human ApoE2 (human, UniProt P02649 19-317).
T5 construct: mature; full length recombinant protein made in E. coli or bought
T5 sequence (P02649 19-317 R176C): as the sequence (P02649 19-317) above, with R158C counted along it
The experiment is described as above. The protocol: as §5

Experiment [8] deals with T1, recombinant alipidated human ApoE4. The description is as above. The protocol:
as §5

Experiment [9] shares this target. Nature of the experiment: ELISA: untreated recombinant ApoE4 on the plate, antibody titrated, OD650. The method, then: as §3, §4
Experiment [10] shares this target. Nature of the experiment: SPR (Biacore T200), biotinylated ApoE4 captured on anti-biotin mAb chip, antibody injected, 1:1 fit. The method, then: The affinity of several anti-ApoE antibodies for ApoE4 was determined by surface plasmon resonance using a BIAcore T200. Anti-biotin monoclonal mouse antibody was immobilized on a Biacore Series S CM5 sensor chip. Biotinylated recombinant alipidated ApoE4 was then captured on to the chip. Serial dilutions of each antibody were injected at a flow rate of 30 μl/min. Each sample was analyzed, for example, with 3-minute association and 10-minute dissociation. After each injection the chip was regenerated using 3 M MgCl₂ or another appropriate buffer. Binding response was corrected by subtracting the response units (RUs) from a flow cell capturing an irrelevant IgG at similar density. A 1:1 Languir model of simultaneous fitting of Kₒₙ and Koff was used for kinetics analysis. Recombinant alipidated ApoE4 was either expressed in soluble form in E. coli and then purified, or purchased from a commercial supplier.

T1 sequence (P02649 19-317 C130R): as the sequence (P02649 19-317) above, with C112R counted along it
T2 sequence (P02649 19-317 C130R): as the sequence (P02649 19-317) above, with C112R counted along it

B1: HJ153 (antibody, V domains shown)
VH: QVQLQQPGAELVKPGASVKLSCKASGYTFTSYWMHWVKQRPGRGLEWIGEIDPSDGFTYNNQNFKDKSTLTVDRSSGTAYLQLSSLTSEDSAVYYCAGSLGRIGLAYWGHGTLVTVSA
VL: QIVLTQSPAIMSASPGEKVTISCSASSSVTYMYWYQQKPGASPKSWIYRTSNLASGVPARFSGSGSGTSYSLTISSMEAEDAATYYCQQFQSYPLTFGAGTKLELKR
notes: murine monoclonal antibody from hybridoma; also called HJ153B (biotinylated)
For orientation: kon means the second-order rate constant of association. Usually EC50 (read off the curve) stands for the concentration that produces a half-maximal response. What is called koff is the rate constant with which the complex falls apart. The term EC50 denotes the midpoint of the concentration-response curve. Consider B1, for which the kon in experiment [1] was found to be 662000 M⁻¹ s⁻¹; in experiment [10] it was 804000 M⁻¹ s⁻¹. Also, the results for the Kd in [2] and in experiment [10] were 0.319 nM and 0.43 nM, respectively. Also, the entries for the “EC50 (read off the curve)” value in [3] and in experiment [9] were about 0.2 nM and about 0.3 nM, respectively. The koff in [4] was 0.000211 s⁻¹; in experiment [10], 0.000346 s⁻¹. Besides, in experiment [5], the binding result is listed as “no binding”. In addition, the results for the EC50 in experiment [6], in [7] and in experiment [8] were 0.02 nM, 0.02 nM and 0.03 nM, respectively.
